From the supplement of paper PMC9170038

System: MS2 coat protein
Test: apparent KD of MS2 coat protein; higher = weaker reporter binding
Conditions: Eterna round: R107; input ligand: arginine 13.2 mM
How it was run: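 Apparent KD is reported per design as the median of normalised binding-curve fits across its clusters. The RNA switches were made by on-chip transcription from Illumina sequencing clusters. SNAP-549-labelled MS2 coat protein was then added in twofold steps (0.7 or 1.5 nM to 3 µM; 0.8–1.5 h to 10–20 min per step) in 100 mM Tris-HCl pH 7.5, 80 mM KCl, 4 mM MgCl2, without or with constant ligand.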

| Sequence | apparent KD of MS2 coat protein [nM] |
| --- | --- |
| GGACUAACCAGAAGGAGCGACGCGCAGAAACUGCAAAAUCCUCCGCACGAGGAUCACCCGUGUCAGGUAGGUCGCUGGUUAGUCG | 21.9 |
| UGAUCCUACAGAGAUACCAGUGCCACUGAGUGACCAGACACAUGAGGAUCACCCAUGUAACACCCUUGGCAGCUCAACUAAAGGG [Same State Theophylline B GF17] | 16.2 |
| UGGUACUAGGCGGCCGCCACUGGGUGAUACAUGAGGAUCACCCAUGUUUAAUGCCGAGAGGCAACCAGGACCGGGCCUAGUACAU | 139 |
| AGCGACAUGCAUGAUACCAGCUACAUGAGGAUCACCCAUGUACGUCAGUAAUGACUGUGUAGCCCUUGGCAGCAUAGAGCAUGUC [Exclusion - Theophylline B (Freestyle 16)] | 14.3 |
| UAUAUAGAUGGACGUCAUAUAGAUGCAGAAGGAGCGUAGGAAACUACAGGUAGGUCGCUGAGGUACAUGAGGAUCACCCAUGUAG [SSArg A #19 Slice of Pi] | 34.3 |
| CGCACAUGAGGAUCACCCAUGUGAGGGCAUCGAGGACCGGUACGGCCGCCACUCGCAGGACAUGAGGAUCACCCAUGUGCCGCCG [SSTA DOUBLE!!! :-D #5] | 22.1 |
| UAGGCACGAGACAUGAGGAUCACCCAUGUUCGAGGACCGGUACGGCCGCCACUCGGUGGACUCAUGGUAAAGCCGGUGAGCCAAU [AK 1.2 SS Trypt (A)] | 16.7 |
| UGACAUUGCUCAGAUACCAGACUUGAGGAACACCCAAGUGCCAACAAGUAUAUAAUAAAAGUCCCUUGGCAGCUGAGCAAUGUCU [TheoBX 19 #MS2Left #AlternativeMS2 #Theo2] | 42.8 |
| CUGCCACGAACGGCCGCCACUUACAUGAGGAUCACCCAUGUGCCUGCGCACAAAGAAUGUCAAGAAAGGACCGGGUUCAAAUAGU [theeternabot_exclusion_MS2_Trp_B_41] | 43.2 |
| GUCGGAGUCGGAAGGAGCGACAUGAGGAUCACCCAUGUCUCCCGUUAUGGGAGUUCCUUAGGUCAGGUAGGUCGCCGACUCCGAC [#1 Exclusion - Arginine B Attempt #24 (Inspired by Omei)] | 104 |
| UGUAUGUGAUCUGAUACCAGUCCAACUGGUAAAACAAGAGGAUCACCCUUGUAAAAUUGGGACCCUUGGCAGCAGAUCGCAUACU | 251 |
| UGUGCAGGAUGCGUAAAGGGUCUUGCGCAUCGAGGACCGGUACGGCCGCCACUCGGCUGUACAUGAGGAUCACCCAUGUCAGGGU [#1 Same State - Tryptophan A Attempt #19 (HarryS)] | 87.1 |
| UCACAUGAGGAUCACCCAUGUGUCAGAGAAGGAGCGGCCGCAAGGCCAGGUAGGUCGCUCGGGUAGCGUGAGGAUCACCCGUGUG [#1 Exclusion - Arginine A Attempt #11 (Inspired by cyborg)] | 31.8 |
| GGUUACUCUACGGCCGCCACUGUAAAGUAAAGAUACCUGUACAUGACAUGAGGAUCACCCAUGUACAGGACCGGGUAGUGUAACC [Tryptophan B 16] | 133 |
| AAUAAUAUCCUCAUGUGAGUCGUACCAUAACGAGGACCGGUACGGCCGCCACUCGAACAUGAGGAUCACCCAUGUAGGUAUGAUA [M'-T'-T-MS2-T'' - Design 7] | 50.6 |
| GAGCUGAUGUAGGGCGGAUAUCCGUGAGAUACCAGUACAGAAAUGUACCCUUGGCAGCUCUUCCUUACAUGAGGAUCACCCAUGU [Ex Theophylline A 26] | 23.1 |
| AGCCAUGGAAACAUGGCGGCGGCAUGAGCGCGAGGACCGGUACGGCCGCCACUCGGGCGACAUGAGGAUCACCCAUGUUCCUCAA [ETA NP+V+V2 #21] | 27.2 |
| UGCCGAGACGUGGAUUACCCGUGUACCGAAGGAGCGCCCGAAAGGGCAGGUAGGUCGCGGAGGACAUGAGGAUCACCCAUGUCGA | 37.3 |
| ACGACAUGAGGAUCACCCAUGUGUACUGAAGGAGCGGCGGAAACGCCAGGUAGGUCGCAGUACACCUCAACCAGCGGUCCUAAGU [EAA NP+V+V2 #2] | 27 |
| AGCACUGUGACGGCCGCCACUACAUAAGUUGGGUGGUCAGGUUCAUUACAUGAGGAUCACCCAUGUAGGACCGGGUCUCAGUGCA [Omei Trp Exc B A v9] | 9.36 |

| Sequence | apparent KD of MS2 coat protein [nM] |
| --- | --- |
| GGCACAUAGUCGGCCGCCACUAGUAUAAGAUGGAAUAACAUGAGGAUCACCCAUGUAAAAGGGACUAGGACCGGGACUAUGUGCC [Rat] | 12.2 |
| CAGUCAGUCAGUCAAUGAGUGAGCCAUGAAGGAGCGUGGGAAACCACAGGUAGGUCGCAUGGGAAACAUGAGGAUCACCCAUGUU [SSArg A #2] | 27.5 |
| UAUCGAAACUGAAGGAGCGAGAUGACAAACAUGAGGAUCACCCAUGUUAUGGGUUGUUAAUCUCAGGUAGGUCGCAGUGGUAGCA [Same State Arginine B GF 17] | 88.1 |
| AUGCUGACAAGGAGGUGUUCCUCAGCUGAUACCAGCCUGGAAACAGGCCCUUGGCAGCAGCACAUGAGGAUCACCCAUGUAAUAA [(T)'-(M)'-(T1)-(T2)-(M1)-(M2)_Design1(Mismatches)] | 56.5 |
| GUUCGUCCUACGGCCGCCACUAAAACACAUGAGGAUCACCCAUGUUAGUAUCCUGGCUGGUGUGAUAGGACCGGGUAGGGAAGAA [theeternabot_exclusion_MS2_Trp_B_14] | 11 |
| AGCGGAACGGAAGGGUCCCAAAAUUGUGAUACCAGCCUUGAAUCCGGCCCUUGGCAGCACAUGAGGAUCACCCAUGUACUGCGGU [Celate] | 11.1 |
| CUAUAGAUAAGAAGGAGCGACAUGAGGAUCACCCAUGUCUACCACGUCGAAAGACGCUCAUGUCAGGUAGGUCGCUUAUUUAUAG [Astros-Eli-mod7] | 71.1 |
| UGACAUUGCUCAGAUACCAGACAUGAGGAUCACCCAUGUACCAAGGUAACCGAAAGGCAUGUCCCUUGGCAGCUGAGCAAUGUCU [TheoBX 2 #MS2Left #Theo2 #StaticStem] | 13 |
| GGGCCCGGGCGCGAGCCCGGGCCCAUUGAUACCAGUGAAUGUGUACGCCCUUGGCAGCGAAUCCUAACAUGAGGAUCACCCAUGU [5.D] | 31.4 |
| AGUCUUGAACGAAGGAGCGACGUACAUGAGGAUCACCCAUGUGUAGGAGCGAAAGCUCCACGUCAGGUAGGUCGCGUUCGAGACA [Omei Arginine B SS A v4] | 12.1 |
| UGGUACAUGAGGAUCACCCAUGUGCCGGAUACCAGAGAGCCGGCUCUCCCUUGGCAGCUGGCGCGACAUGAGGAUCACCCAUGUG [Exclusion Theophylline A GF18] | 18.1 |
| UUAGAUAUGACGGAUACCAGCGUGUUGUAGAACAUGAGGAUCACCCAUGUAGUGAUCAUGCGCCCUUGGCAGCUGGUAUGUUUGG [7.U] | 178 |
| AUACAUGAGGAUCACCCAUGUCCUCGUGAUCGAGGACCGGUACGGCCGCCACUCGGUCCUCGCGAGGAGGAGUCAAAGACUCCUA [Omei Trp A SS A v6] | 97.2 |
| UGAGUUAGACAAAAGUCUAGCUCUGGUGAAGGAGCGUCCGAAAGGACAGGUAGGUCGCACCACAUGAGGAUCACCCAUGUUCCUU [ArgAS 10 #OpenEnded] | 112 |
| GGUUACUCUACGGCCGCCACUGAACAUGAGGAUCACCCAUGUAAUGUUCAGACGUCUUUAGACGACAGGACCGGGUAGUGUAACC [Tryptophan B 5] | 119 |
| AAUUCCUAACAUGAGGAUCACCCAUGUGAAGGAGCGCCGAAUAAGGCAGGUAGGUCGCACAUGGAACAGCUGCGAAAGAGGAAAA [XArg-A 5 V1&2] | 11.9 |
| UGUAACAUGAGGAUCACCCAUGUGAGUGAUACCAGACUAGUGUUAGUCCCUUGGCAGCACGCUGGACAAAUGUGUAGUCUAUGCG [Same State - Theophylline A (Freestyle 20)] | 40.2 |
| GAAUAAAGUAGAACACAAGACUCCUGAGAAGGAGCGCAGUCAACUGCAGGUAGGUCGCUCAGGAACACAUGAGGAUCACCCAUGU [Disoonlate] | 16.9 |
| AUCCAGAGCCGAAGGAGCGCUAGAAGAUGACAUGAGGAUCACCCAUGUGUGUGAUGUGGCUAGCAGGUAGGUCGCGGACUGGAUU [Exclusion - Arginine B (Freestyle 13)] | 20.1 |

Same assay, conditions: Eterna round: R107; input ligand: none

| Sequence | apparent KD of MS2 coat protein [nM] |
| --- | --- |
| GGACUAACCAGAAGGAGCGACGCGCAGAAACUGCAAAAUCCUCCGCACGAGGAUCACCCGUGUCAGGUAGGUCGCUGGUUAGUCG | 29.6 |
| UGGUACUAGGCGGCCGCCACUGGGUGAUACAUGAGGAUCACCCAUGUUUAAUGCCGAGAGGCAACCAGGACCGGGCCUAGUACAU | 327 |
| UAUAUAGAUGGACGUCAUAUAGAUGCAGAAGGAGCGUAGGAAACUACAGGUAGGUCGCUGAGGUACAUGAGGAUCACCCAUGUAG [SSArg A #19 Slice of Pi] | 26.5 |
